Laboratory results as given in patent publication US20210155910, “IMPROVED REVERSE TRANSCRIPTASE AND METHODS OF USE” (YALE UNIVERSITY, published 2021).

Target: T1, E.r. maturase (MarathonRT) WT (Eubacterium rectale)
T1 chain: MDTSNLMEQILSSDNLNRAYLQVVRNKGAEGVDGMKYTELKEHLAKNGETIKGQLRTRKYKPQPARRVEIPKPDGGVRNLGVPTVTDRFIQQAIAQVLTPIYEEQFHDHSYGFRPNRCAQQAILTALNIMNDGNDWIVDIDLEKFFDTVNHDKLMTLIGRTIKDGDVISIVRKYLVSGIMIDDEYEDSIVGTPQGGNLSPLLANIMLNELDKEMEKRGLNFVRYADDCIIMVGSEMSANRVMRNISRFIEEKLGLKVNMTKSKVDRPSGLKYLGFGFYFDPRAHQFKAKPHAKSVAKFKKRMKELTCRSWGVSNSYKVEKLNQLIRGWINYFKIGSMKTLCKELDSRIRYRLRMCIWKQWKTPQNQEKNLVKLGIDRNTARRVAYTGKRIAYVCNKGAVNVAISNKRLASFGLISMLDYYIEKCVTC
Experiment: indirect: D4A at 16:1 raises primer incorporation on RepA D3 from 84.1% to 93.0%; Tris pH 8.3, 200 mM KCl, 2 mM MgCl2, 0.6 M trehalose
Conditions: tags: N-terminal 6xHis-SUMO, cleaved; hairpin
From the text: The surface of E.r. maturase is enriched with positively charged amino acids, to which primers used for reverse transcription non-specifically binds, and thus the efficiency of primer utilization is compromised. To reduce the non-specific binding, D4A helix (FIG. 12A, originated from E.r. Group II intron) was used in the reaction buffer to block the positively charged residues on the surface of E.r. maturase, attempting to further improve the performance of E.r. maturase in the already optimized buffer (50 mM Tris pH 8.3, 200 mM KCl, 2 mM MgCl₂, 5 mM DTT and 0.6 M trehalose).

B1: D4A helix of E.r. group II intron (ssRNA)
RNA: GUCUCGUAUUGCAGAAAUGACAACAUCUGCCGUAACCAAUCGGGUAAAAGGUGGUCAAAUCAAGCGAGAC
binding result: binds
